# Experimental data from patent publication US20240270846A1 (published 2024).
# Residue numbers refer to the chain shown, from its start. Numbers in names are those of the source.
# B1: GLS3000 N28H one-arm antibody (H chain CE115HA000) (antibody, human IgG1, kappa, L234A L235A, N297A, name in Kabat numbering)
# heavy: QVQLVESGGGVVQPGRSLRLSCAASGFTFSNAWMHWVRQAPGKGLEWVAQIKAKSNNYATYYAESVKGRFTISRDDSKNSLYLQMNSLKTEDTAVYYCRYVHYGAYYGVDAWGQGTTVTVSSASTKGPSVFPLAPSSKSTSGGTAALGCLVKDYFPEPVTVSWNSGALTSGVHTFPAVLQSSGLYSLSSVVTVPSSSLGTQTYICNVNHKPSNTKVDKKVEPKSCDKTHTCPPCPAPEAAGGPSVFLFPPKPKDTLMISRTPEVTCVVVDVSHEDPEVKFNWYVDGVEVHNAKTKPREEQYASTYRVVSVLTVLHQDWLNGKEYKCKVSNKALPAPIEKTISKAKGQPREPQVYTLPPSRCELTKNQVSLSCAVKGFYPSDIAVEWESNGQPENNYKTTPPVLDSDGSFFLVSKLTVDKSRWQQGNVFSCSVMHEALHNHYTQKSLSLSPDYKDDDDK
# chain: EPKSSDKTHTCPPCPAPELLGGPSVFLFPPKPKDTLMISRTPEVTCVVVDVSHEDPEVKFNWYVDGVEVHNAKTKPREEQYNSTYRVVSVLTVLHQDWLNGKEYKCKVSNKALPAPIEKTISKAKGQPREPQVCTLPPSRDELTKNQVSLWCLVKGFYPSDIAVEWESNGQPENNYKTTPPVLDSDGSFFLYSKLTVDKSRWQQGNVFSCSVMHEALHNRYTQKSLSLSP
# light: DIVMTQSPLSLPVTPGEPASISCRSSQSLVHSHRNTYLHWYQQKPGQAPRLLIYKVSNRFSGVPDRFSGSGSGTDFTLKISRVEAEDVGVYYCGQGTQVPYTFGQGTKLEIKRTVAAPSVFIFPPSDEQLKSGTASVVCLLNNFYPREAKVQWKVDNALQSGNSQESVTEQDSKDSTYSLSSTLTLSKADYEKHKVYACEVTHQGLSSPVTKSFNRGEC
# notes: one-arm antibody
# B2: GLS3000 N28I one-arm antibody (H chain CE115HA000) (antibody, human IgG1, kappa, L234A L235A, N297A, name in Kabat numbering)
# heavy: B1 heavy
# chain: B1 chain
# light: B1 light with H33I
# notes: one-arm antibody
# B3: GLS3000 N30D one-arm antibody (H chain CE115HA000) (antibody, human IgG1, kappa, L234A L235A, N297A, name in Kabat numbering)
# heavy: B1 heavy
# chain: B1 chain
# light: B1 light with H33N, N35D
# notes: one-arm antibody
# B4: GLS3000 N28M one-arm antibody (H chain CE115HA000) (antibody, human IgG1, kappa, L234A L235A, N297A, name in Kabat numbering)
# heavy: B1 heavy
# chain: B1 chain
# light: B1 light with H33M
# notes: one-arm antibody
# B5: GLS3000 N28W one-arm antibody (H chain CE115HA000) (antibody, human IgG1, kappa, L234A L235A, N297A, name in Kabat numbering)
# heavy: B1 heavy
# chain: B1 chain
# light: B1 light with H33W
# notes: one-arm antibody
# B6: GLS3000 N30E one-arm antibody (H chain CE115HA000) (antibody, human IgG1, kappa, L234A L235A, N297A, name in Kabat numbering)
# heavy: B1 heavy
# chain: B1 chain
# light: B1 light with H33N, N35E
# notes: one-arm antibody
# B7: GLS3000 N30L one-arm antibody (H chain CE115HA000) (antibody, human IgG1, kappa, L234A L235A, N297A, name in Kabat numbering)
# heavy: B1 heavy
# chain: B1 chain
# light: B1 light with H33N, N35L
# notes: one-arm antibody
# B8: GLS3000 N30G one-arm antibody (H chain CE115HA000) (antibody, human IgG1, kappa, L234A L235A, N297A, name in Kabat numbering)
# heavy: B1 heavy
# chain: B1 chain
# light: B1 light with H33N, N35G
# notes: one-arm antibody
# B9: GLS3000 N30F one-arm antibody (H chain CE115HA000) (antibody, human IgG1, kappa, L234A L235A, N297A, name in Kabat numbering)
# heavy: B1 heavy
# chain: B1 chain
# light: B1 light with H33N, N35F
# notes: one-arm antibody
# B10: GLS3000 N28S one-arm antibody (H chain CE115HA000) (antibody, human IgG1, kappa, L234A L235A, N297A, name in Kabat numbering)
# heavy: B1 heavy
# chain: B1 chain
# light: B1 light with H33S
# notes: one-arm antibody
# B11: GLS3000 N30H one-arm antibody (H chain CE115HA000) (antibody, human IgG1, kappa, L234A L235A, N297A, name in Kabat numbering)
# heavy: B1 heavy
# chain: B1 chain
# light: B1 light with H33N, N35H
# notes: one-arm antibody
# B12: GLS3000 N28K one-arm antibody (H chain CE115HA000) (antibody, human IgG1, kappa, L234A L235A, N297A, name in Kabat numbering)
# heavy: B1 heavy
# chain: B1 chain
# light: B1 light with H33K
# notes: one-arm antibody
# B13: GLS3000 N28V one-arm antibody (H chain CE115HA000) (antibody, human IgG1, kappa, L234A L235A, N297A, name in Kabat numbering)
# heavy: B1 heavy
# chain: B1 chain
# light: B1 light with H33V
# notes: one-arm antibody
# B14: GLS3000 N30I one-arm antibody (H chain CE115HA000) (antibody, human IgG1, kappa, L234A L235A, N297A, name in Kabat numbering)
# heavy: B1 heavy
# chain: B1 chain
# light: B1 light with H33N, N35I
# notes: one-arm antibody
# B15: GLS3000 N28Y one-arm antibody (H chain CE115HA000) (antibody, human IgG1, kappa, L234A L235A, N297A, name in Kabat numbering)
# heavy: B1 heavy
# chain: B1 chain
# light: B1 light with H33Y
# notes: one-arm antibody
# B16: GLS3000 N28P one-arm antibody (H chain CE115HA000) (antibody, human IgG1, kappa, L234A L235A, N297A, name in Kabat numbering)
# heavy: B1 heavy
# chain: B1 chain
# light: B1 light with H33P
# notes: one-arm antibody
# B17: GLS3000 N28Q one-arm antibody (H chain CE115HA000) (antibody, human IgG1, kappa, L234A L235A, N297A, name in Kabat numbering)
# heavy: B1 heavy
# chain: B1 chain
# light: B1 light with H33Q
# notes: one-arm antibody
# B18: GLS3000 N30M one-arm antibody (H chain CE115HA000) (antibody, human IgG1, kappa, L234A L235A, N297A, name in Kabat numbering)
# heavy: B1 heavy
# chain: B1 chain
# light: B1 light with H33N, N35M
# notes: one-arm antibody
# B19: GLS3000 N28T one-arm antibody (H chain CE115HA000) (antibody, human IgG1, kappa, L234A L235A, N297A, name in Kabat numbering)
# heavy: B1 heavy
# chain: B1 chain
# light: B1 light with H33T
# notes: one-arm antibody
# B20: GLS3000 N28L one-arm antibody (H chain CE115HA000) (antibody, human IgG1, kappa, L234A L235A, N297A, name in Kabat numbering)
# heavy: B1 heavy
# chain: B1 chain
# light: B1 light with H33L
# notes: one-arm antibody
# B21: GLS3000 N30A one-arm antibody (H chain CE115HA000) (antibody, human IgG1, kappa, L234A L235A, N297A, name in Kabat numbering)
# heavy: B1 heavy
# chain: B1 chain
# light: B1 light with H33N, N35A
# notes: one-arm antibody
# B22: GLS3000 N30K one-arm antibody (H chain CE115HA000) (antibody, human IgG1, kappa, L234A L235A, N297A, name in Kabat numbering)
# heavy: B1 heavy
# chain: B1 chain
# light: B1 light with H33N, N35K
# notes: one-arm antibody
# Biological target: T1, CD3 epsilon homodimer protein (UniProt P07766 23-126)
# T1 construct: also called CD3 (CD3 epsilon)
# T1 sequence (P07766 23-126): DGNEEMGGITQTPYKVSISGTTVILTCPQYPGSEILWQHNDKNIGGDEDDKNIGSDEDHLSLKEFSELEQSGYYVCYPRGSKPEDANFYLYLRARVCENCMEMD
# Assay: SPR, CD3e homodimer on chip;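 further: surface plasmon resonance at 25 degrees C, antibodies flowed as analyte over CD3 epsilon homodimer amine-coupled to a CM4 chip, running buffer HBS-EP+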
row,ratio of amounts bound (altered form / unaltered GLS3000 antibody),Binder
1,0.42,B1
2,0.44,B2
3,0.34,B3
4,0.39,B4
5,0.41,B5
6,0.44,B6
7,0.7,B7
8,0.47,B8
9,1.1,B9
10,0.32,B10
11,0.98,B11
12,0.44,B12
13,0.36,B13
14,0.61,B14
15,0.26,B15
16,0.36,B16
17,0.37,B17
18,0.8,B18
19,0.45,B19
20,0.39,B20
21,0.5,B21
22,1.65,B22
